Experimental data published in publication PMC3351461.

Assays:
[1] = target: Wnt3a (human (endogenous in H322 and H460)) (UniProt P56704)
[2] = target: Wnt3a (human (endogenous in H322 and H460)) (UniProt P56704); remark: listed apart in the source

Chain of UniProt P56704 (P56704 19-352): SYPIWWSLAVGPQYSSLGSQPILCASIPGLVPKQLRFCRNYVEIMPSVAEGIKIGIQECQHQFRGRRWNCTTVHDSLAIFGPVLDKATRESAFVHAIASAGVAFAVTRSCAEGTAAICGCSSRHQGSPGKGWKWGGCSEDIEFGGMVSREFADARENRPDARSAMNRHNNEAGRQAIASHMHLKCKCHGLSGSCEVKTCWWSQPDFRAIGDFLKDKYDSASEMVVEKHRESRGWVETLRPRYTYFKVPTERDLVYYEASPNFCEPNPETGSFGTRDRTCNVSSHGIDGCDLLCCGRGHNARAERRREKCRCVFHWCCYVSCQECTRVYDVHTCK

TOPflash luciferase activity in H322 cells with recombinant Wnt3a (100 ng/ml), lower in dE1-k35/sLRP6E1E2-transduced than in dE1-k35/LacZ-transduced cells [1]: 52%
TOPflash luciferase activity in H322 cells without added Wnt3a, reduction by dE1-k35/sLRP6E1E2 compared with dE1-k35/LacZ [1]: 12%
TOPflash luciferase activity in H460 cells with recombinant Wnt3a (100 ng/ml), lower in dE1-k35/sLRP6E1E2-transduced than in dE1-k35/LacZ-transduced cells [1]: 48%
TOPflash luciferase activity in H460 cells without added Wnt3a, reduction by dE1-k35/sLRP6E1E2 compared with dE1-k35/LacZ [1]: 48%
nuclear beta-catenin (immunofluorescence, quantified) in H322 cells with Wnt3a, decrease in dE1-k35/sLRP6E1E2-transduced cells compared with dE1-k35/LacZ [2]: 98.1%
Substance: soluble LRP6 receptor (sLRP6E1E2) (domain or fragment)
